The values that follow come from article PMC10082071.

The target of assay [1] is Lysyl oxidase-like 2 (LOXL2), full-length, endogenous in human aortic smooth muscle cells (human (endogenous in HASMC)) (UniProt Q9Y4K0). Description: proximity ligation; Duolink In Situ Red mouse/rabbit kit on HASMC on coverslips, fixed but not permeabilised; cells untreated, with FXa, or with FXa + rivaroxaban for 24 h; signal as mean gray value, % of average of controls.

The target of assay [2] is FXa-processed LOXL2, endogenous in human aortic smooth muscle cells treated with FXa (human (endogenous in HASMC)) (UniProt Q9Y4K0). The assay is described as above.

“Type IV collagen, endogenous in the matrix of human aortic smooth muscle cells (complex)”: in assay [1], the increase of PLA signal with rivaroxaban (full-length LOXL2 accumulated) is 80 % (increase). Besides, the decrease of PLA signal with FXa against controls in assay [2] is 50 % (decrease).
